From article PMC8001920, “Selecting Subpopulations of High-Quality Protein Conformers among Conformational Mixtures of Recombinant Bovine MMP-9 Solubilized from Inclusion Bodies” (International Journal of Molecular Sciences, 2021) come the findings set out here.

The data set concerns the molecule itself. Briefly: SDS-PAGE and Western blot; IMAC peaks of solubilized MMP-9 from L. lactis, mixed 1:1 with Laemmli buffer, boiled at 90 °C for 10 min, run with 0.1% SDS, detected with anti-His-tag monoclonal antibody; bands of high molecular weight.

B1: recombinant bovine MMP-9 fragment (Phe107-Pro449), C-terminally His-tagged, produced in L. lactis (domain or fragment)
chain: not shown
notes: matrix metalloproteinase 9 (MMP-9), bovine, fragment Phe107-Pro449 of NCBI NM_174744.2; The same fragment was also made in Clearcoli BL21(DE3) (pETDuet); no result on self-association is told for that material; also called matrix metalloproteinase 9; solubilized MMP-9; not shown: 6His-tag, C-terminal, kept
Take B1: the binding result is given as “binds”.
